The values below come from PMC2112927.

This assay addresses rabbit skeletal muscle F-actin (rabbit), P68135. Nature of the assay: nanosecond emission anisotropy. The following applies: remark: other sources report otherwise.

B1: IAENS-labeled Dictyostelium severin, P10733 1-362 (natural protein)
chain: MIKNRKLDITSTNVAGIGTDLDKKCRLDAASTEAQWKGVGQAPGLKIWRIENFKVVPVPESSYGKFYDGDSYIILHTFKEGNSLKHDIHFFLGTFTTQDEAGTAAYKTVELDDFLGGAPIQYRQCQSYESPSFLSLFPKYFILSGGVESGFNHVKPTEYKPRLLHISGDKNAKVAEVPLATSSLNSGDCFLLDAGLTIYQFNGSKSSPQEKNKAAEVARAIDAERKGLPKVEVFCETDSDIPAEFWKLLGGKGAIAAKHETAPTKSEKVLYKLSDASGSLKFSEVSRGKINKSSLKSEDVFIIDLGNEIYTWIGSKSSPNEKKTAFSHATQYLVNNKRCEYTPIVRVLENGTNQSFETLLSA
modifications: here or on the partner: one to two IAENS molecules attached to the protein (residues not stated)
For B1, the rotational correlation time is over 400 ns.
